Experimental data from patent publication US20150125386A1, “HUMANIZED ANTI-CEACAM5 ANTIBODY AND USES THEREOF” (IMMUNOMEDICS, INC., priority 2013, published 2015).

Assays:
[1] = compared with rituximab; cited from earlier work
[2] = tested on: GW-39 human colonic tumor; experiment: In vivo therapy of lung metastases of GW-39 human colonic tumors in nude mice; details: 250 μg, q4d×8, therapy initiated 14 days after i.v. tumor injection
Procedure: FIG. 3. Survival curves of hMN14-CL-SN-38 treated mice bearing GW-39 lung metastatic disease.
Alternative immunoconjugates, comprising different linkers between the antibody and the SN-38, were prepared as disclosed in U.S. Pat. No. 7,591,994, the Figures and Examples section of which are incorporated herein by reference. A lung metastatic model of colonic carcinoma was established in nude mice by i.v. injection of GW-39 human colonic tumor suspension, and therapy was initiated 14 days later. Specific anti-CEACAM5 antibody conjugates, hMN14-CL1-SN-38 and hMN14-CL2-SN-38, as well as nontargeting anti-CD22 antibody control conjugates, hLL2-CL1-SN-38 and hLL2-CL2-SN-38 and equidose mixtures of hMN14 and SN-38 were injected at a dose schedule of q4d×8, using different doses. […] The dose-responsiveness of therapeutic effect of conjugated antibody was also observed.

[3] = tested on: Capan 1 human pancreatic carcinoma; experiment: In vivo therapy of athymic nude mice bearing Capan 1 pancreatic tumor xenografts with antibody-CL2A-SN-38 conjugates; details: Capan 1 s.c. xenograft, FIG. 1
Procedure: FIG. 1. In vivo therapy of athymic nude mice, bearing Capan 1 human pancreatic carcinoma, with antibody-CL2A-SN-38 conjugates.
(§1) The efficacy of drug-conjugated Class III anti-CEA antibody was investigated. Immunoconjugates comprising antibody-SN-38 conjugates were prepared as discussed in U.S. Pat. No. 7,999,083, the Figures and Examples sections of which are incorporated herein by reference. Immune-compromised athymic nude mice (female), bearing subcutaneous human pancreatic or colon tumor xenografts were treated with either specific CL2A-SN-38 conjugate or control conjugate or were left untreated. The therapeutic efficacies of the specific conjugates were observed.

metastatic colon cancer = experiment: Treatment of metastatic colon cancer with P2PDox conjugate of Class III anti-CEA antibody (Example 11); type: in vivo, human; details: 8 weeks from treatment begin
Procedure: A prodrug form of 2-pyrrolinodoxorubicin, referred to herein as “P2PDox”, is prepared and conjugated to the hMN-14 antibody as disclosed in U.S. patent application Ser. No. 14/175,089, the Figures and Examples sections of which are incorporated herein by reference.
A person with metastatic colon cancer (3-5 cm diameters) to their left and right liver lobes, as well as a 5 cm metastasis to their right lung, and an elevated blood CEA value of 130 ng/mL, is treated with a 150 mg dose of hMN-14 Class III anti-CEA antibody conjugated to P2PDox at 4 drug molecules per IgG, administered by slow intravenous infusion every other week for 4 doses. […] At the same time, their blood CEA titer is reduced to 30 ng/mL. Repeated courses of therapy continue as their neutropenia normalizes.

gastric adenocarcinoma = experiment: Gastric cancer patient with stage IV metastatic disease treated with IMMU-130 (Example 6); type: in vivo, human
Procedure: The patient is a person who sought medical attention because of gastric discomfort and pain related to eating for about 6 years, and with weight loss during the past 12 months. […] The patient has their gastric tumor resected, and then has baseline CT measurements of their metastatic tumors.
The patient is then given experimental therapy with IMMU-130 (anti-CEACAM5-SN-38) on a weekly schedule of 8 mg/kg. […] The patient then undergoes a CT study to measure their metastatic tumor sizes and to view the original area of gastric resection.

rectal carcinoma = experiment: Continuous infusion of labetuzumab-SN-38 in patient with liver metastases of rectal carcinoma (Example 8); type: in vivo, human
Procedure: The patient was previously resected for a rectal carcinoma and receives pre- and post-operative radiochemotherapy as per conventional treatment. […] They then receive a repeat continuous infusion therapy 5 weeks later, now for 3 weeks, at 1 mg/kg.

[4] = tested on: advanced metastatic colon cancer; experiment: Therapy of advanced metastatic colon cancer with anti-CEACAM5 immunoconjugate (Example 9); type: in vivo, human; details: 12 mg/kg every other week, irinotecan-unresponsive
Procedure: The patient is a person who fails prior therapies for metastatic colon cancer. The first line of therapy is FOLFIRINOX+AVASTIN® (built up in a stepwise manner) starting with IROX (Irinotecan+Oxaliplatin) in the first cycle. […] This is followed by surgery to remove tumor tissue. […] This leads to the initiation of the second line regimen (FOLFIRI+Cetuximab). […] Then RF ablation of liver metastases is performed, followed by continuation of adjuvant chemotherapy with FOLFIRINOX+Cetuximab, followed by maintenance Cetuximab for approximately one year. […] This leads to a wedge resection of the lung nodules. Subsequently FOLFIRI+Cetuximab is restarted and continued. Later CT scans show both lung and liver metastases.
At the time of administration of the hMN-14-SN-38 immunoconjugate, the patient has advanced metastatic colon cancer, with metastases of both lung and liver, which is unresponsive to irinotecan (camptothecin). The hMN-14-SN-38 immunoconjugate is administered at a dosage of 12 mg/kg, which is repeated every other week.
The effect of the antibody moiety in improved targeting of the camptothecin accounts for the efficacy of the SN-38 moiety in the cancer that had been previously resistant to unconjugated irinotecan.

[5] = tested on: LS174T human colon carcinoma; experiment: In vivo therapy of athymic nude mice bearing LS174T colon carcinoma xenografts; details: LS174T s.c. xenograft, FIG. 2
Procedure: FIG. 2. In vivo therapy of athymic nude mice, bearing LS174T human colon carcinoma, with hMN-14-CL2A-SN-38 conjugate.
as §1

[6] = tested on: stage-IV metastatic colonic cancer; experiment: Therapy of advanced colon cancer patient refractory to prior chemo-immunotherapy with IMMU-130 (Example 4); type: in vivo, human
Procedure: Thereafter, they were given courses of cetuximab, either alone or combined with FOLFIRI (leucovorin, 5-flurouracil, irinotecan) chemotherapy during the next year or more. […] The index lesions chosen by the radiologist for measuring tumor size change by computed tomography were the mid-lobe of the right lung and the liver metastases, both totaling 91 mm as the sum of their longest diameters at the baseline prior to IMMU-130 (anti-CEACAM5-SN-38) therapy.
This patient received doses of 16 mg/kg of IMMU-130 by slow IV infusion every other week for a total of 17 treatment doses.

[7] = tested on: metastatic colonic cancer (Stage IV); experiment: Therapy of a patient with advanced colonic cancer with IMMU-130 (Example 5); type: in vivo, human
Procedure: This patient is a person initially diagnosed with metastatic colonic cancer (Stage IV). […] Their baseline CEA titer just before this therapy is 15 ng/mL. […] The patient continues their investigational therapy.

[8] = tested on: LS174T human colon adenocarcinoma; experiment: Biodistribution of 131I-labelled humanized MN-14 IgG in nude mice bearing human colon cancer; type: in vivo
Procedure: The biodistribution of labeled humanized MN-14 IgG in nude mice bearing human colon cancer was determined. For radiolocalization studies, at 4-5 weeks female athymic mice (nu/nu, Harlan, Indianapolis, Ind.) were given s.c. 0.2 ml of a 10% suspension of LS174T human colon adenocarcinoma prepared from a xenograft serially propagated in an athymic mouse (Sharkey et al., Cancer Res., 50: 828-34 (1990)). After waiting 2 weeks for tumor development, the mice were injected i.v. with 20 μCi (about 2 μg) of ^131I-labelled humanized MN-14 antibodies. Groups of 4-5 mice were sacrificed at intervals thereafter, and radioactivity localized in tissues. […] Tumor:nontumor ratios were excellent.

[9] = 131I-labelled, i.v., nude mice bearing LS174T

Substance: veltuzumab: humanized IgG1 antibody against CD20
- immunogenicity in subjects [1]: less immunogenic in subjects than rituximab

Substance: hLL2-CL1-SN-38: nontargeting anti-CD22 antibody control conjugate
- median survival [2]: 56 days

Substance: hRS7-CL2A-SN-38
- therapeutic efficacy [3]: better efficacies than control hA20-CL2A-SN-38 conjugate

Substance: hMN-14 Class III anti-CEA antibody conjugated to P2PDox
- reduction of the total mean diameters of the 3 target lesions (CT) (metastatic colon cancer; 150 mg every other week for 4 doses): 25%
- response by RECIST1.1 criteria (metastatic colon cancer): good stable disease response
- blood CEA titer (metastatic colon cancer; 130 ng/mL before): 30 ng/mL

Substance: IMMU-130
- diarrhea (gastric adenocarcinoma; 8 mg/kg weekly, after 3 weeks): grade 1
- neutropenia (gastric adenocarcinoma; 8 mg/kg weekly, after 3 weeks): grade 2
- decrease of the sum of the metastatic lesions (CT, RECIST) vs. baseline (gastric adenocarcinoma; 8 mg/kg weekly, first CT study on therapy): 23%
- decrease of the sum of all metastatic lesions (CT) (gastric adenocarcinoma; after a total of 13 infusions): 41%
- response by RECIST (gastric adenocarcinoma; after a total of 13 infusions): partial response
- CEA titer (gastric adenocarcinoma; at first CT study, pre-IMMU-130 baseline 14.5 ng/mL): 7.2 ng/mL
- blood CEA (gastric adenocarcinoma; last measurement, after maintenance therapy every third week): 4.8 ng/mL
- liver metastases by CT (rectal carcinoma; continuous infusion 2 mg/kg over 17 days, then 1 mg/kg for 3 weeks, three weeks later): 1 of the liver metastases has disappeared
- blood CEA titer (rectal carcinoma; three weeks after second infusion, 6.3 ng/mL before): 2.4 ng/mL
- nausea and vomiting (rectal carcinoma; while under therapy): grade 2
- neutropenia (rectal carcinoma; while under therapy): grade 2
- response by RECIST criteria [4]: partial response
- therapeutic efficacy [5]: more efficacious than non-treatment
- side effects (nausea, diarrhea, fatigue) ([6]; 16 mg/kg IV every other week, after the first treatment and treatments 4 and 5): grade 1 nausea, diarrhea and fatigue
- duration of fatigue after the first infusion ([6]; 16 mg/kg every other week): 2 weeks
- duration of nausea, diarrhea and occasional vomiting ([6]; 16 mg/kg every other week): 2 to 3 days
- alopecia ([6]; 16 mg/kg every other week, after treatment 3): grade 2
- change of sum of index lesions (CT) from baseline ([6]; after 4 treatments, 16 mg/kg every other week): 28.6%
- reduction of sum of index lesions (CT) from baseline ([6]; after 8 treatments): 40.6%
- response according to RECIST criteria ([6]; after 8 treatments): partial remission
- anti-labetuzumab antibody in blood ([6]; after 16 doses): none was detected
- plasma CEA titer ([6]; after the third therapy dose, baseline 12.6 ng/mL): 2.1 ng/mL
- index lesions less than baseline (CT) ([6]; another 2 months after the 8-treatment evaluation): 31.9%
- tolerability ([7]; 6 mg/kg twice weekly for 2 weeks, one week rest, more than 20 doses): tolerated very well, without any major hematological or non-hematological toxicities
- shrinkage of the index tumor lesions ([7]; 8-week evaluation): 21%
- ascites and pleural effusion ([7]; 13 weeks): both decrease
- shrinkage of the index tumor lesions ([7]; 13 weeks): 27%
- plasma CEA titer ([7]; within 2 months of therapy, baseline 15 ng/mL): 1.3 ng/mL
- therapeutic efficacy [3]: better efficacies than control hA20-CL2A-SN-38 conjugate

Substance: hLL2-CL2-SN-38: nontargeting anti-CD22 antibody control conjugate
- median survival [2]: 77 days

Substance: hMN-14: humanized Class III anti-CEA (anti-CEACAM5) antibody; heavy and light chains SEQ ID NO:1 and SEQ ID NO:2
- time of maximum tumor accretion [8, 9]: ≤ 2 days
- tumor accretion of the antibody [8, 9]: excellent tumor accretion
- Tumor:nontumor ratios ([8]; 131I-labelled, nude mice bearing LS174T): excellent
- uptake by the spleen ([8]; compared with mMN-14): higher uptake of hMN-14 by the spleen than there was of mMN-14
- blood clearance ([8]; compared with parental mMN-14): more rapid than the parental mMN-14 antibody
